From patent publication US20080057028A1

Experiments:
[1] = molecular target: neuropilin-2 on mouse oligodendrocyte precursor cells (OPCs) (mouse) (UniProt O35375); assay: cell-based or functional assay
[2] = molecular target: VEGFR-3 on mouse oligodendrocyte precursor cells (OPCs) (mouse) (UniProt P35917); assay: cell-based or functional assay
Chain of UniProt P35917 (P35917 25-1363): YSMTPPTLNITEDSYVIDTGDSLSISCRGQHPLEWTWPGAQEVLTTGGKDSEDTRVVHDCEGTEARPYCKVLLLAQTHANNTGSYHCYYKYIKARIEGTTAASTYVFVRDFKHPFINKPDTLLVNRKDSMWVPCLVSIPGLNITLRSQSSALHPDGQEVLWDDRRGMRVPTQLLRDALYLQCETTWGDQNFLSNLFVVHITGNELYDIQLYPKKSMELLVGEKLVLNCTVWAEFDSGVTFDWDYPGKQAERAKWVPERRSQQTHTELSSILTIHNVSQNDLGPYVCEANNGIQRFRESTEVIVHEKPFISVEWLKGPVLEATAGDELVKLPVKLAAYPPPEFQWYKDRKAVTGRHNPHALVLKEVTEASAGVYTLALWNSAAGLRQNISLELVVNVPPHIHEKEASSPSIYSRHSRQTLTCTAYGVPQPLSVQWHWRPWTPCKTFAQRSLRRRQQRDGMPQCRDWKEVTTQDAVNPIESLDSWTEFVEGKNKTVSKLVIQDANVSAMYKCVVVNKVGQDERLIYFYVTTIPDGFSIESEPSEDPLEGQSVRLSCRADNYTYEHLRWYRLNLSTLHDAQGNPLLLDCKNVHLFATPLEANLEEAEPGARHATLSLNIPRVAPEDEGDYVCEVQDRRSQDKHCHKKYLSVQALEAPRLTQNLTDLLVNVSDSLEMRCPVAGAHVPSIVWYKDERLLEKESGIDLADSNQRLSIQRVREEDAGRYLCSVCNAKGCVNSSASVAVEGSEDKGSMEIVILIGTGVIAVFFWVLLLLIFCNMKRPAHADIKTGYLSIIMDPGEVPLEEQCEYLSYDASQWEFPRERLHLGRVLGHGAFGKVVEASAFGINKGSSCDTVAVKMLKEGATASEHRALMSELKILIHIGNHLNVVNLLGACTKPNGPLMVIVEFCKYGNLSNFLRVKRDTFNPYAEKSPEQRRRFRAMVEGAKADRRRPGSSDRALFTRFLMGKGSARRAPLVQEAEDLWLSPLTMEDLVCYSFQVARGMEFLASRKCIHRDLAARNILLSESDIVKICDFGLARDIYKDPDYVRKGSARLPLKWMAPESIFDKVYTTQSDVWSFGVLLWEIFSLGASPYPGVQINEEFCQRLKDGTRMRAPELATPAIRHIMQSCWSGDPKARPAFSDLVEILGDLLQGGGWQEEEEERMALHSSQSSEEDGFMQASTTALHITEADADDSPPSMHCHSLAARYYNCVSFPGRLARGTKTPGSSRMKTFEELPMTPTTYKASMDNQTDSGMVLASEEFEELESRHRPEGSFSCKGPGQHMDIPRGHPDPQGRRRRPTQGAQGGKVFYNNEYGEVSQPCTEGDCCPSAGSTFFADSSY

Chain of UniProt O35375 (O35375 21-931): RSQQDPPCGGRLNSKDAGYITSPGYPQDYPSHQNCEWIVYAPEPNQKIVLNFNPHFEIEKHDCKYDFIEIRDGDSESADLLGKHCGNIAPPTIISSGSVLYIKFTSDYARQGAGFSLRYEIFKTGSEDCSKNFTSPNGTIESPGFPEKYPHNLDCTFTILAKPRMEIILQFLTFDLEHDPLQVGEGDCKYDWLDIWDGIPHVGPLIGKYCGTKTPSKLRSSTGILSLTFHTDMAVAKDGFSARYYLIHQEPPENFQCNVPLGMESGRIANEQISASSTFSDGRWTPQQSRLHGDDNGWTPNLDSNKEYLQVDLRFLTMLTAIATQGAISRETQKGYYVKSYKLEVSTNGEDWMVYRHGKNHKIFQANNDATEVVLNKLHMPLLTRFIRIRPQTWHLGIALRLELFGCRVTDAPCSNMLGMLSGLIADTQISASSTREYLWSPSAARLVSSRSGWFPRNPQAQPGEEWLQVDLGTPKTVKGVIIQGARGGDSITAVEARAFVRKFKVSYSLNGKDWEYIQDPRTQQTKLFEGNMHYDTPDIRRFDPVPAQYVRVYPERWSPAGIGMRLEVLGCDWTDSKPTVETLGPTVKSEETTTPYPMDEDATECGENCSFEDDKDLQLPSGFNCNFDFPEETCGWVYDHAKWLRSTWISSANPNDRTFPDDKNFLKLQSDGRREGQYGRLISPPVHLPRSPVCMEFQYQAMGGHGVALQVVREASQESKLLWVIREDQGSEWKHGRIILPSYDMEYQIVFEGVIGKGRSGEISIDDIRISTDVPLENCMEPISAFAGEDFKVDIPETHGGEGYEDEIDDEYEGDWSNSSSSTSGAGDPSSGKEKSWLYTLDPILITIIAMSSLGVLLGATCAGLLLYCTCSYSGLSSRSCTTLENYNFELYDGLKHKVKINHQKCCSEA

Row | Substance | BrdU incorporation of A2B5^+ OPCs [1] | proliferation of OPCs (BrdU^+/A2B5^+ cells) [2] | migration of Olig2^+ OPCs through the filter (transwell) [2]
1 | VEGF-C (supernatant of COS cells secreting VEGF-C) (ligand) | 2 fold |  | 
2 | human VEGF-C156S (R&D Systems) (from UniProt P49767 103-227) (ligand) |  | 50% | 
3 | recombinant rat VEGF-C (Reliatech) (from UniProt O35757 99-223) (ligand) |  | 2 fold | > 2 fold
